The values below come from US20220213181A1 (Novartis, published 2022).

Assay [1] addresses T1, Human ANGPTL4(26-406)-FLAG-His6-Avi (human, UniProt Q9BY76 24-406, biotin on the C-terminal Avi tag (BirA) where the protein is immobilised).
T1 construct: the text calls it 20 amino acids), then QP, ANGPTL4 26-406 and FLAG-His6-Avi; the signal peptide is left out here; also called full length human ANGPTL4; hANGPTL4
T1 sequence: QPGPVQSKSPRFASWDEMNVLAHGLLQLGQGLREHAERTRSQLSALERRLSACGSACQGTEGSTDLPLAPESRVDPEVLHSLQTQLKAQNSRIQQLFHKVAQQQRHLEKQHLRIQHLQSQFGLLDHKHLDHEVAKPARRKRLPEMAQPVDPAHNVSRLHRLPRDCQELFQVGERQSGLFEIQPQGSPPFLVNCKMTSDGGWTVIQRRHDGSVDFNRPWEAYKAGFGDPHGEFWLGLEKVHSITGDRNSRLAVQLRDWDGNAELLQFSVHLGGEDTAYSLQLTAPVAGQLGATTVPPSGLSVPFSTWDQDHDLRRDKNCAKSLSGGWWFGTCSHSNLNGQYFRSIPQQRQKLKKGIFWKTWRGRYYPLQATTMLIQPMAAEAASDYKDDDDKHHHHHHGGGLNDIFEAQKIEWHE
The assay is described as follows: Octet (ForteBio) kinetics, biotinylated antigen on streptavidin sensor, IgG in solution; slower than the limit of detection.

For assay [2], the target named is T2, Human ANGPTL4(26-161)-FLAG-His6-Avi (human, biotin on the C-terminal Avi tag (BirA) where the protein is immobilised).
T2 construct: also called human ANGPTL4 N-terminal coiled coil domain; hANGPTL4-CCD
T2 chain: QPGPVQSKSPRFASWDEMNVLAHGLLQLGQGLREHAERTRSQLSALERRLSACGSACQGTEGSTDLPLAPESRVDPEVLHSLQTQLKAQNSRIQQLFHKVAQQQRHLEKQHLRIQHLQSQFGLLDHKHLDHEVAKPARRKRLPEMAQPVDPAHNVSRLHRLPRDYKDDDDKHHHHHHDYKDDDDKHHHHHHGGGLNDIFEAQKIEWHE
The assay is described as above.

Assay [3] has as its target T3, Cynomolgus monkey ANGPTL4(26-406)-FLAG-His6-Avi (cynomolgus monkey, biotin on the C-terminal Avi tag (BirA) where the protein is immobilised).
T3 construct: also called Cyno ANGPTL4 (26-406)
T3 chain: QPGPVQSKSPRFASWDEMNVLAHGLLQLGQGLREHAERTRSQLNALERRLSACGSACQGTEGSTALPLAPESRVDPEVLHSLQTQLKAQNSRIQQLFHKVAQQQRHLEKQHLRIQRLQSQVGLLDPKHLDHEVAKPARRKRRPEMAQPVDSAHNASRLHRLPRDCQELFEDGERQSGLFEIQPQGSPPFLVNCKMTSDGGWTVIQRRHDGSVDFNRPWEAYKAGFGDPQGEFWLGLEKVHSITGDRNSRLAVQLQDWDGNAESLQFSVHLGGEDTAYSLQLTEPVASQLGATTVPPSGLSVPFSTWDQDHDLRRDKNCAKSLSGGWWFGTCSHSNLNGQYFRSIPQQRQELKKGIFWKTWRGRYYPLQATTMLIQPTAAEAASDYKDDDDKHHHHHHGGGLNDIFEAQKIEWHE
The assay is described as above.

Assay [4] has as its target T4, Rat ANGPTL4(24-405)-FLAG-His6-Avi (rat, UniProt Q6TMA8 24-405, biotin on the C-terminal Avi tag (BirA) where the protein is immobilised).
T4 sequence: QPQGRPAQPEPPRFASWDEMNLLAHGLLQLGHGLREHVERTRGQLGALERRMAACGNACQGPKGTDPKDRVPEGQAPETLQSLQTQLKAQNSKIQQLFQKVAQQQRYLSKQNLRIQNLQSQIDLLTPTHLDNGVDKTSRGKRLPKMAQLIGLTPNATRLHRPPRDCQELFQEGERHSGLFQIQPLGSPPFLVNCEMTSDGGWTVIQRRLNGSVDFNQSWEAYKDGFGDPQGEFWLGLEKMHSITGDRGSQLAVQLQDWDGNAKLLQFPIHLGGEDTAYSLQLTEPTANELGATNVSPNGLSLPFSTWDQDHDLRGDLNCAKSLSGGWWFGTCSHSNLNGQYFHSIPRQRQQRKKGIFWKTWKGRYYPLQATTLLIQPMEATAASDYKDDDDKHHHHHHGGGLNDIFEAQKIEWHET
The assay is described as follows: Octet (ForteBio) kinetics, biotinylated antigen on streptavidin sensor, IgG in solution; Octet kinetics; run 3 on rat ANGPTL4.

Assay [5] has as its target T4, Rat ANGPTL4(24-405)-FLAG-His6-Avi. The assay can be described thus: Octet (ForteBio) kinetics, biotinylated antigen on streptavidin sensor, IgG in solution; Octet kinetics, rat ANGPTL4 on the sensor, antibody up to 25 nM; run 1.
Assay [6] has as its target T1, Human ANGPTL4(26-406)-FLAG-His6-Avi. The assay can be described thus: Octet (ForteBio) kinetics, biotinylated antigen on streptavidin sensor, IgG in solution; upper limit by the footnote. On the procedure: Dissociation constants (KD) were determined for selected antibodies of the invention by using an Octet (ForteBio) kinetic binding assay. ForteBio 10× Kinetics Buffer (ForteBio, catalog number 18-5032) was diluted 10-fold with DPBS (Life Technologies, catalog number 14190-136), and the resulting solution was added (0.2 ml per well) to a 96-well plate (Greiner, catalog number 65520). Streptavidin sensors (ForteBio, catalog number 18-5020) were immersed in the solution and equilibrated for at least 10 min at room temperature. In a second 96-well plate (Greiner, catalog number 65520), sensors were washed in 1× Kinetics buffer, and then immersed in 200 ul of 25 nM biotinylated human ANGPTL4 or a biotinylated reference protein (for background subtraction) for 1000 sec at […] room temperature. […] The sensors were then transferred to a well containing 200 μl 1× Kinetics buffer, and antibody dissociation was monitored for 1200 seconds. Background-corrected association and dissociation curves were globally fitted by Octet Software (ForteBio) to generate association (kₐ) and dissociation (kd) rate constants, which in turn were used to calculate equilibrium dissociation constants (KD).

Where only a bound is given, the exact number is not on record here.

B1: NEG276-LALA (antibody, human IgG1, kappa, L234A L235A)
heavy: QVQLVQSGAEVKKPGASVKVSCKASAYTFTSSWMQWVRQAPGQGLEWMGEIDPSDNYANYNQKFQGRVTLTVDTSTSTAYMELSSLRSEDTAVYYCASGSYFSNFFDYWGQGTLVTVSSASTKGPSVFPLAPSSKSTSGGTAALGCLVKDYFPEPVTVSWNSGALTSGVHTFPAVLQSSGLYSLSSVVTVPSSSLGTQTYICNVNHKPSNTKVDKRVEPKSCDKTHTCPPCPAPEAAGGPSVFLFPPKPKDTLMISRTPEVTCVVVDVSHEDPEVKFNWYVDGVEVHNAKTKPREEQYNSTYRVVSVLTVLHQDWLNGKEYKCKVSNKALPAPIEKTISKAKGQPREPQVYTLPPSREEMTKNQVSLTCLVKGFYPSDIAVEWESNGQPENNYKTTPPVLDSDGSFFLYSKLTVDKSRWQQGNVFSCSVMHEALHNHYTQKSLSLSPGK
light: EIVMTQSPATLSVSPGERATLSCKASQDIGSNLNWLQQKPGQAPRRLIYAVSNRGPGIPARFSGSRSGSEYTLTISSLQSEDFAVYYCLQYASSPWTFGQGTKVEIKRTVAAPSVFIFPPSDEQLKSGTASVVCLLNNFYPREAKVQWKVDNALQSGNSQESVTEQDSKDSTYSLSSTLTLSKADYEKHKVYACEVTHQGLSSPVTKSFNRGEC
Turning to B1, the koff in assay [1] turned out to be 4.9e-07 s⁻¹; in assay [2] it was 3.1e-06 s⁻¹; in assay [3] it was 4.1e-06 s⁻¹; in assay [4] it was 0.00028 s⁻¹; in assay [5] it was 0.0012 s⁻¹. Moreover, the Kd is 5.53 nM in assay [4] and 7.47 nM in assay [5]. For the same molecule, the kon in assay [4] was found to be 52000 M⁻¹ s⁻¹; in assay [5] it was 160000 M⁻¹ s⁻¹.

B2: NEG278 (antibody, human IgG1, kappa, V domains shown)
VH: QVQLVQSGAEVKKPGASVKVSCKASAYTFTSSWMQWVRQAPGQGLEWMGEIDPSDNYANYNQKFQGRVTLTVDTSTSTAYMELSSLRSEDTAVYYCASGSYFSNFFDYWGQGTLVTVSS
VL: EIVMTQSPATLSVSPGERATLSCKASQDIGSNLNWLQQKPGQAPRRLIYAASVREPGIPARFSGSRSGSEYTLTISSLQSEDFAVYYCLQYASSPWTFGQGTKVEIKR
notes: humanized, hIgG1/kappa, parental antibody 19C16
In turn, B2 came in with a Kd in assay [6] of at most 0.017 nM.
